In IntAct's records for PubMed 16531226:

B1: Serine/threonine-protein phosphatase 5 (Homo sapiens), P53041 (parent)
chain: MAMAEGERTECAEPPRDEPPADGALKRAEELKTQANDYFKAKDYENAIKFYSQAIELNPSNAIYYGNRSLAYLRTECYGYALGDATRAIELDKKYIKGYYRRAASNMALGKFRAALRDYETVVKVKPHDKDAKMKYQECNKIVKQKAFERAIAGDEHKRSVVDSLDIESMTIEDEYSGPKLEDGKVTISFMKELMQWYKDQKKLHRKCAYQILVQVKEVLSKLSTLVETTLKETEKITVCGDTHGQFYDLLNIFELNGLPSETNPYIFNGDFVDRGSFSVEVILTLFGFKLLYPDHFHLLRGNHETDNMNQIYGFEGEVKAKYTAQMYELFSEVFEWLPLAQCINGKVLIMHGGLFSEDGVTLDDIRKIERNRQPPDSGPMCDLLWSDPQPQNGRSISKRGVSCQFGPDVTKAFLEENNLDYIIRSHEVKAEGYEVAHGGRCVTVFSAPNYCDQMGNKASYIHLQGSDLRPQFHQFTAVPHPNVKPMAYANTLLQLGMM

Variants of: B1
Details: with hs90b_human HSP90AB1, P08238
Chain of hs90b_human HSP90AB1, P08238 (P08238 whole entry): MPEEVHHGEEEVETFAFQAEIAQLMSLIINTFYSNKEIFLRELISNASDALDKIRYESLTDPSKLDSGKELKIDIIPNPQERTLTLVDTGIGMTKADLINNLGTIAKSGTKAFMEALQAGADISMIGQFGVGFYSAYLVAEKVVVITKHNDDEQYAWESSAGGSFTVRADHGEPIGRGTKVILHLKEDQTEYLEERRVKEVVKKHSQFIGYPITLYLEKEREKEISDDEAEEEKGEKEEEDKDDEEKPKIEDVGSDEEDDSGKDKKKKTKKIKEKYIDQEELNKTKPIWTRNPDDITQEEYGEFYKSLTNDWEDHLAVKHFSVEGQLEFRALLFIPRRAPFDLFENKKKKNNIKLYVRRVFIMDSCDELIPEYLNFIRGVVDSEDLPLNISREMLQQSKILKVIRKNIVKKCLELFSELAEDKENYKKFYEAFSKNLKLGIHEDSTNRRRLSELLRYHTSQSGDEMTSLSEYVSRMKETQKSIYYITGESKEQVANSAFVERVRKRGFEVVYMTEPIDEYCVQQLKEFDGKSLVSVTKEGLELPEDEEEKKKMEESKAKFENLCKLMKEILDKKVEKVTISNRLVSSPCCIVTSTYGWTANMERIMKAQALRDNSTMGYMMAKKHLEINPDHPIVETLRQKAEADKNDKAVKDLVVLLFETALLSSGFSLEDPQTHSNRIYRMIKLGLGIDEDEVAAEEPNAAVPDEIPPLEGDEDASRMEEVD

| Variant | effect of a mutation on the interaction |
| --- | --- |
| G83N | increasing interaction |
